Experimental data published in article PMC10673843, “Selection, characterization and in vivo evaluation of novel CD44v6-targeting antibodies for targeted molecular radiotherapy” (Scientific Reports, 2023).

Biological target: T1, CD44 (isoform 4), Fc-fused (Homo sapiens, UniProt P16070-4, strain)
T1 construct: printed MW 94.4 kDa; Fc-fused, dimeric presentation; For selections, ELISA and HTRF it was chemically biotinylated by amine coupling; also called CD44iso4; CD44iso4-Fc fusion construct; source: bought: Promab Biotechnologies, produced in HEK293 cells; not shown: Fc (IgG1), C-terminal, kept
Assay: SPR; single cycle kinetics; purified IgG4 captured by an immobilised anti-Fab antibody on a CM5 chip; CD44iso4 (Fc-fused, dimeric) injected in five concentrations between 80 and 0.3 nM; HBS with 0.05% Tween20, pH 7.5; 1:1 model; apparent (possible avidity from the dimeric target)
Details: both partners purified

binding result: binds
B1: BIWA4 (bivatuzumab), as human IgG4 (antibody, V domains shown)
VH: EVQLVESGGGLVKPGGSLRLSCAASGFTFSSYDMSWVRQAPGKGLEWVSTISSGGSYTYYLDSIKGRFTISRDNAKNSLYLQMNSLRAEDTAVYYCARQGLDYWGRGTLVTVSS
VL: EIVLTQSPATLSLSPGERATLSCSASSSINYIYWYQQKPGQAPRLLIYLTSNLASGVPARFSGSGSGTDFTLTISSLEPEDFAVYYCLQWSSNPLTFGGGTKVEIK
notes: VH of BIWA4; human IgG4 heavy chain constant region from the in-house vector pHAT-hIgG4, with the hinge-stabilising S228P substitution; numbers count on: EU numbering; VL of BIWA4; light chain constant region of the vector pHAT-hIgG4; also called positive control; source: expiHEK293 cells, transfected, purified (Protein A beads)
